The target in this test is 白血球IFN (leukocyte IFN, Sigma I-2396). The test is described as follows: cell-based or functional assay.

Bounds are passed on as bounds.

B1: ACO-1 (antibody, V domains shown)
VH: QVQLQQPGAELVKPGASVKLSCKASGYTFTNYWMHWVKQRPGQGLEWIGEINPSHGRTIYNENFKSKATLTVDKSSITAFMQLSSLTSEDSAVYFCARGGLGPAWFAYWGQGTLVTVSA
VL: QIVLTQSPAIMSASPGEKVTLTCSAGSSVDSSYLYWYQQKPGSSPKLWIYSTSNLASGVPARFSGSGSGTSYSLTISSMEAEDAASYFCHQWSSYPFTFGSGTKLEIKR
B1: the percent block of bioactivity, RG bioassay, 600 pg leukocyte IFN was > 50%.

For the origin of these results see patent publication JP2010500380A.
